From US20170152307A1 (Janssen / Centocor, published 2017)
Where two headings read alike, the source gives them in different places. Blank lines part the entries; values can stand above or below the binder they belong to. Where no end group is shown, it is not given here. The star is where a group is joined. Biotin = O=C1N[C@H]2[C@H](CS[C@H]2CCCCC(=O)*)N1

What was measured:
ptau 299-323 p305, 316 = ptau 299-323 p305, 316 (human); assay: peptide ELISA, biotinylated peptide on streptavidin plate, IgG titrated (Example 14)
ptau 299-323 p305, 316 (human), sequence (main, as listed by the source): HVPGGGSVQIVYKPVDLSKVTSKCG
Procedure: (§1) Plates were washed five times with TBS-T followed by the addition of secondary antibody [goat Anti-Human IgG F(ab′)₂ (Jackson Labs) at 1:2000 dilution], diluted in TBS plus 0.25% BSA, and incubated at RT for 1 hour. Following incubation, plates were washed four times in TBS-T and developed with SureBlue Reserve TMB Microwell Peroxidase Substrate (KPL) for approximately 90 seconds. The reaction was immediately halted by the addition of TMB Stop Solution (KPL) and the absorbance at 450 nm was measured using an ELISA plate reader. Each experiment was conducted in triplicate across three different days. Reactivity was considered positive when values were equal to or higher than an OD of 0.4 in the ELISA assay. […] (−) for average of two O.D. 450 nm readings <0.3; (−/+) for >0.5 and <1.0; (+) for >1.0 and <1.5; (++) for >1.5. […] (−) for average of three O.D. 450 nm readings <0.3; (−/+) for >0.5 and <1.0; (+) for >1.0 and <1.5; (++) for >1.5.
(§2) (−) for average of two O.D. 450 nm readings <0.3; (−/+) for >0.5 and <1.0; (+) for >1.0 and <1.5; (++) for >1.5.

ptau 404-421 = molecular target: T1, ptau 404-421 (human); assay: peptide ELISA
T1 construct: also called ptau 404-421 p414
Procedure: (§3) Briefly, 96-well streptavidin-binding plates (Thermo-Fisher) were coated with 2 μg/ml of tau peptides diluted in TBS and incubated overnight at 4° C. […] Plates were washed five times with TBS-T followed by the addition of secondary antibody [goat Anti-Human IgG F(ab′)₂ (Jackson Labs) at 1:2000 dilution], diluted in TBS plus 0.25% BSA, and incubated at RT for 1 hour. Following incubation, plates were washed four times in TBS-T and developed with SureBlue Reserve TMB Microwell Peroxidase Substrate (KPL) for approximately 90 seconds. The reaction was immediately halted by the addition of TMB Stop Solution (KPL) and the absorbance at 450 nm was measured using an ELISA plate reader. Each experiment was conducted in triplicate across three different days. Reactivity was considered positive when values were equal to or higher than an OD of 0.4 in the ELISA assay. […] (−) for average of two O.D. 450 nm readings <0.3; (−/+) for >0.5 and <1.0; (+) for >1.0 and <1.5; (++) for >1.5. […] (−) for average of three O.D. 450 nm readings <0.3; (−/+) for >0.5 and <1.0; (+) for >1.0 and <1.5; (++) for >1.5.

ptau 406-423 = ptau 406-423 (human); assay: peptide ELISA
Procedure: as §3

ptau 404-429 = ptau 404-429 (human); assay: peptide ELISA, 1 ug/mL IgG
[1] = molecular target: ptau 406-429 (pS416, pS422) (human); assay: peptide ELISA, 1 ug/mL IgG
ptau 412-429 = ptau 412-429 (human); assay: peptide ELISA, 1 ug/mL IgG
ptau 412-434 = molecular target: T2, ptau 412-434 (human); assay: peptide ELISA, 1 ug/mL IgG
T2 construct: also called ptau 412-434 p422, 427

[2] = molecular target: ptau 225-245 (pS235, pS238) (human); assay: peptide ELISA, 1 ug/mL IgG
Procedure: (§4) Plates were coated in TBS overnight at 4° C. The following day, plates were washed five times with TB S/0.05% TWEEN® (TBS-T) and blocked with 150 IA of TBS-T plus 2.5% BSA (blocking buffer) for 2 hour. Tau peptides were captured on streptavidin-coated plates (Pierce) at a concentration of 0.43 μM in 100 μl of TBS. Tau peptides used to set up ELISA assays were the same used as baits in corresponding sorting experiment. Tau peptide-coated plates were then incubated at RT for 1.5 hours. All plates were then washed five times with TBS/0.05% TWEEN® and blocked with 150 μl and 300 μl (tau peptide plates only) of blocking buffer and incubated at RT for 2 hours. […] Primary antibodies were incubated for 2 hours at RT and washed five times in TBS-T. Finally, goat-anti human IgG Fab or goat anti-mouse HRP (Jackson Labs) was used at 1:2000 and 1:4000, respectively, and incubated for 1 hour at RT. Plates were washed five times in TBS-T and developed with SureBlue Reserve TMB Microwell Peroxidase Substrate (KPL). The reaction was halted by the addition of 50 μl and 100 μl (peptide plates) of TMB Stop Solution (KPL) and the absorbance at 450 nm was measured using an ELISA plate reader. Supernatants with the aforementioned binding activities were subsequently reconfirmed in an independent ELISA experiment.

[3] = molecular target: ptau 221-245 (pT231, pS238) (human); assay: peptide ELISA, 1 ug/mL IgG
Procedure: as §4

ptau 228-245 (pS238) = ptau 228-245 (pS238) (human); assay: peptide ELISA, 1 ug/mL IgG
Procedure: as §4

[4] = molecular target: ptau 406-429 (pS416, pS422) (human); assay: peptide ELISA, 1 ug/mL IgG; remark: listed apart in the source
Procedure: as §4

tau 389-441 = molecular target: T3, tau 389-441 (human, N-terminal biotin, not carried by the letters); assay: peptide ELISA, biotinylated peptide on streptavidin plate, IgG titrated (Example 6)
T3 peptide: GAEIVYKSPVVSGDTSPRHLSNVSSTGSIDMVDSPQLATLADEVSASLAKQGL
Procedure: as §4

[5] = molecular target: ptau 406-429 (pS416, pS422) (human); assay: as above
Procedure: as §4

tau 405-423 = molecular target: T4, tau 405-423 (human); assay: peptide ELISA
T4 peptide: Biotin-PRHLSNVSSTGSIDMVDSP
Procedure: as §3

tau 409-428 = molecular target: T5, tau 409-428 (human, N-terminal biotin, not carried by the letters); assay: peptide ELISA
T5 peptide: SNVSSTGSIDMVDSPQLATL
Procedure: as §3

ptau 48-71 (p64) = molecular target: T6, ptau 48-71 (p64) (human); assay: peptide ELISA, biotinylated peptide on streptavidin plate, IgG titrated (Example 14)
T6 construct: also called ptau 48-71 (Ser64)
T6 sequence (main, as listed by the source): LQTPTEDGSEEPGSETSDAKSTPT
Procedure: as §1, §2

tau 52-71 (A62) = molecular target: T7, tau 52-71 (A62) (human, N-terminal biotin; not carried in the letters); assay: alanine-scan peptide ELISA
T7 construct: E62A
T7 peptide: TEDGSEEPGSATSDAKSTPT
Procedure: as §1
(§5) To further characterize the specificity and amino acid contribution to binding of each of the recover mAbs, their reactivity to tau peptides with each position replaced with Alanine was tested by ELISA. […] (−) for average of two O.D. 450 nm readings <0.3; (−/+) for >0.5 and <1.0; (+) for >1.0 and <1.5; (++) for >1.5.

tau 52-71 (A67) = molecular target: T8, tau 52-71 (A67) (human, N-terminal biotin on the synthetic peptide; not carried in the letters); assay: alanine-scan peptide ELISA
T8 construct: K67A
T8 peptide: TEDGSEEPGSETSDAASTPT
Procedure: as §1, §5

tau 52-71 (A65) = molecular target: T9, tau 52-71 (A65) (human, N-terminal biotin on the synthetic peptide; not carried in the letters); assay: alanine-scan peptide ELISA
T9 construct: D65A
T9 peptide: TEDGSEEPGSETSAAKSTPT
Procedure: as §1, §5

tau 62-81 = molecular target: T10, tau 62-81 (human, N-terminal biotin, not carried by the letters); assay: peptide ELISA, biotinylated overlapping peptide on streptavidin plate, IgG titrated (Example 9)
T10 peptide: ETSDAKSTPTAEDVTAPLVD
Procedure: as §3

tau 42-61 = molecular target: T11, tau 42-61 (human, N-terminal biotin, not carried by the letters); assay: as above
T11 peptide: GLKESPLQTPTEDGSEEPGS
Procedure: as §3

tau 82-103 = tau 82-103 (human, N-terminal biotin, not carried by the letters); assay: as above
tau 82-103 (human, N-terminal biotin, not carried by the letters), sequence (peptide, as listed by the source limits assumed): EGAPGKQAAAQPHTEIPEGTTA
Procedure: as §3

tau 72-91 = molecular target: T12, tau 72-91 (human, N-terminal biotin, not carried by the letters); assay: as above
T12 peptide: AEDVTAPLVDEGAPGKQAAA
Procedure: as §3

tau 52-71 (A57) = molecular target: T13, tau 52-71 (A57) (human, N-terminal biotin; not carried in the letters); assay: alanine-scan peptide ELISA, 1 ug/mL IgG
T13 construct: E57A
T13 peptide: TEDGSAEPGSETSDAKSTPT
Procedure: as §1, §5

tau 52-71 (A58) = molecular target: T14, tau 52-71 (A58) (human, N-terminal biotin; not carried in the letters); assay: alanine-scan peptide ELISA, 1 ug/mL IgG
T14 construct: E58A
T14 peptide: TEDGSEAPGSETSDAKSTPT
Procedure: as §1, §5

tau 52-71 (A59) = molecular target: T15, tau 52-71 (A59) (human, N-terminal biotin; not carried in the letters); assay: alanine-scan peptide ELISA, 1 ug/mL IgG
T15 construct: P59A
T15 peptide: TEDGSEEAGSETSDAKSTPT
Procedure: as §1, §5

tau 52-71 (A61) = molecular target: T16, tau 52-71 (A61) (human, N-terminal biotin; not carried in the letters); assay: alanine-scan peptide ELISA, 1 ug/mL IgG
T16 construct: S61A
T16 peptide: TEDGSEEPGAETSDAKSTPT
Procedure: as §1, §5

tau 52-71 (A70) = molecular target: T17, tau 52-71 (A70) (human, N-terminal biotin on the synthetic peptide; not carried in the letters); assay: alanine-scan peptide ELISA, 1 ug/mL IgG
T17 construct: P70A
T17 peptide: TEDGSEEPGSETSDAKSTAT
Procedure: as §1, §5

tau 52-71 (A68) = molecular target: T18, tau 52-71 (A68) (human, N-terminal biotin on the synthetic peptide; not carried in the letters); assay: alanine-scan peptide ELISA, 1 ug/mL IgG
T18 construct: S68A
T18 peptide: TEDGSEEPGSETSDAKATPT
Procedure: as §1, §5

tau 52-71 (A54) = molecular target: T19, tau 52-71 (A54) (human, N-terminal biotin, not carried by the letters); assay: alanine-scan peptide ELISA, 1 ug/mL IgG
T19 construct: D54A
T19 peptide: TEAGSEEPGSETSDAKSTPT
Procedure: as §1, §5

tau 52-71 (A52) = molecular target: T20, tau 52-71 (A52) (human, N-terminal biotin, not carried by the letters); assay: alanine-scan peptide ELISA, 1 ug/mL IgG
T20 construct: T52A
T20 peptide: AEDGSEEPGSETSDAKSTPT
Procedure: as §1, §5

tau 52-71 (A69) = molecular target: T21, tau 52-71 (A69) (human, N-terminal biotin on the synthetic peptide; not carried in the letters); assay: alanine-scan peptide ELISA, 1 ug/mL IgG
T21 construct: T69A
T21 peptide: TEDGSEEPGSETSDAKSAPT
Procedure: as §1, §5

tau 52-71 (A56) = molecular target: T22, tau 52-71 (A56) (human, N-terminal biotin; not carried in the letters); assay: alanine-scan peptide ELISA, 1 ug/mL IgG
T22 construct: S56A
T22 peptide: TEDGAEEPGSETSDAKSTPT
Procedure: as §1, §5

tau 52-71 (A71) = molecular target: T23, tau 52-71 (A71) (human, N-terminal biotin on the synthetic peptide; not carried in the letters); assay: alanine-scan peptide ELISA, 1 ug/mL IgG
T23 construct: T71A
T23 peptide: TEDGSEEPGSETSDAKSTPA
Procedure: as §1, §5

tau 52-71 (A64) = molecular target: T24, tau 52-71 (A64) (human, N-terminal biotin on the synthetic peptide; not carried in the letters); assay: alanine-scan peptide ELISA, 1 ug/mL IgG
T24 construct: S64A
T24 peptide: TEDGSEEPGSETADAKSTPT
Procedure: as §1, §5

tau 52-71 (A53) = molecular target: T25, tau 52-71 (A53) (human, N-terminal biotin, not carried by the letters); assay: alanine-scan peptide ELISA, 1 ug/mL IgG
T25 construct: E53A
T25 peptide: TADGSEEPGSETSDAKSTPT
Procedure: as §1, §5

tau 52-71 (A55) = molecular target: T26, tau 52-71 (A55) (human, N-terminal biotin (all tau peptides were synthesized with an amino-terminal biotin group); not carried in the letters); assay: alanine-scan peptide ELISA, 1 ug/mL IgG
T26 construct: G55A
T26 peptide: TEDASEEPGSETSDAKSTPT
Procedure: as §1, §5

tau 52-71 (A63) = molecular target: T27, tau 52-71 (A63) (human, N-terminal biotin on the synthetic peptide; not carried in the letters); assay: alanine-scan peptide ELISA, 1 ug/mL IgG
T27 construct: T63A
T27 peptide: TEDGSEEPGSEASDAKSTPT
Procedure: as §1, §5

tau 52-71 (A60) = molecular target: T28, tau 52-71 (A60) (human, N-terminal biotin; not carried in the letters); assay: alanine-scan peptide ELISA, 1 ug/mL IgG
T28 construct: G60A
T28 peptide: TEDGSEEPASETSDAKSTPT
Procedure: as §1, §5

EC50 (read off the curve) (ptau 299-323 p305, 316): ~0.01 µg/mL
OD450 (ptau 404-421): < 0.3 od
OD450 (ptau 406-423): < 0.3 od
OD450 (ptau 404-429): 0.5 to 1 od
OD450 [1]: 0.5 to 1 od
OD450 (ptau 412-429): 0.5 to 1 od
OD450 (ptau 412-434): 0.5 to 1 od
B1: CBTAU-27.1 (antibody, human IgG1, V domains shown)
VH: QVQLVESGPEMRKPGESLKISCKTSGYIFSDYWTAWVRQLPGKGLQWMGIIYSGDSDTRYHPSVQGHVTMSTDSSLTTAYLQWSSLKASDTGIYYCARLDARVDAGWQLDSWGQGTLVTVSS
VL: DIQLTQSPDSLAVSLGERATINCKSSQSVFSRDNNKNYLAWYQHKSGQPPKLLFFWASSRESGVSDRFSGSGSGTDFTLTIDNLQAEDVALYYCQHYFNTPHNFGQGTKLEIK
notes: recombinant full-length human IgG1

OD450 [2]: > 1.5 od
OD450 [3]: > 1.5 od
OD450 (ptau 228-245 (pS238)): > 1.5 od
B2: CBTAU-24.1 (antibody, human IgG1, V domains shown)
VH: QVQLVQSGAEVKKPGASVKVSCTASGYTFTGYYLHWVRQAPGQGLEWMGWVNPRSGGTSYPPKFQGRVTMTRDTSINTAYMDLTWLTSDDTAVYYCAVGRIPDVTAFDIWGQGTPVTVSS
VL: DIQMTQSPDSLAVSLGERATINCKSSESLLYDSNNKNYLAWYQQKPGQPPKLLIYWASTRESGVPDRFSGSGSETDFTLTISSLQAEDVAVYHCQQYFSTPWTFGQGTKLEIK
notes: as for B1

OD450 [4]: > 1.5 od
binding result (tau 389-441): no binding (tested: 5 µg/mL)
EC50 (read off the curve) [5]: ~0.04 µg/mL
B3: CBTAU-22.1 (antibody, human IgG1, V domains shown)
VH: QVQLVQSGAEVKKPGAPVKVSCETSGYRFSDYNVHWVRQAPGQGPEWIGRISPNSGGTKYAQKFQGRVTMTRDMSMNTAYMELSGLRSDDTAVYYCVRGHCDGTTCSRAYWGQGTLVTVSS
VL: DVVMTQSPLSLPVTPGEPASISCRSSQSLLHRSGHKYLHWYLQRPGQSPQVLIYLGSNRASGVPDRFSGSGSGTDFTLKISRVEAEDVGLYYCMQTLQTPWTFGQGTKVEIK
notes: as for B1
binding result (tau 405-423): no binding (tested: OD450 <0.3 at 2 ug/mL)
binding result (tau 409-428): no binding (tested: OD450 <0.3 at 2 ug/mL)

EC50 (read off the curve) (ptau 48-71 (p64)): ~0.2 µg/mL
binding result (tau 62-81): no binding (tested: 5 µg/mL)
binding result (tau 42-61): no binding (tested: 5 µg/mL)
binding result (tau 82-103): no binding (tested: 5 µg/mL)
binding result (tau 72-91): no binding (tested: 5 µg/mL)
binding result (tau 52-71 (A57)): binds
binding result (tau 52-71 (A58)): binds
binding result (tau 52-71 (A59)): binds
binding result (tau 52-71 (A61)): binds
binding result (tau 52-71 (A70)): binds
binding result (tau 52-71 (A68)): binds
binding result (tau 52-71 (A54)): binds
binding result (tau 52-71 (A52)): binds
binding result (tau 52-71 (A69)): binds
binding result (tau 52-71 (A56)): binds
binding result (tau 52-71 (A71)): binds
binding result (tau 52-71 (A64)): binds
binding result (tau 52-71 (A53)): binds
binding result (tau 52-71 (A55)): binds
binding result (tau 52-71 (A63)): binds
binding result (tau 52-71 (A60)): binds
B4: CBTAU-28.1 (antibody, human IgG1, V domains shown)
VH: QVQLQQSGAEVKKPGESLKISCEASGYSFTNYWIGWVRQMPGKGLEWMGIIYPGDSDTRYSPPFQGQVTITADRSITTAYLEWSSLKASDTAMYYCARVGRPSKGGWFDPWGQGTLVTVSS
VL: DIQMTQSPDSLAVSLGERATINCESSQTLLYSSNEKNYLAWYQQKPGQPPKLLISWASTPESGVPDRFSGSGSGTSFTLTISSLQAEDVAVYYCQQYYNSPYTFGQGTRLEIK
notes: as for B1
binding result (tau 52-71 (A62)): no binding (tested: OD450 <0.3 at 1 ug/mL)
binding result (tau 52-71 (A67)): no binding (tested: OD450 <0.3 at 1 ug/mL)
binding result (tau 52-71 (A65)): no binding (tested: OD450 <0.3 at 1 ug/mL)
